# In IntAct's records for PubMed 12058072:
# B1: Serine/threonine-protein kinase GIN4 (Saccharomyces cerevisiae), Q12263 (parent)
# chain: MAINGNSIPAIKDNTIGPWKLGETLGLGSTGKVQLARNGSTGQEAAVKVISKAVFNTGNVSGTSIVGSTTPDALPYGIEREIIIMKLLNHPNVLRLYDVWETNTDLYLVLEYAEKGELFNLLVERGPLPEHEAIRFFRQIIIGVSYCHALGIVHRDLKPENLLLDHKYNIKIADFGMAALETEGKLLETSCGSPHYAAPEIVSGIPYQGFASDVWSCGVILFALLTGRLPFDEEDGNIRTLLLKVQKGEFEMPSDDEISREAQDLIRKILTVDPERRIKTRDILKHPLLQKYPSIRDSKSIRGLPREDTYLTPLSESNSSIDATILQNLVILWHGRDPEGIKEKLREPGANAEKTLYALLYRFKCDTQKELIKQQQVKKRQSISSVSVSPSKKVSTTPQRRRNRESLISVTSSRKKPISFNKFTASSASSSNLTTPGSSKRLSKNFSSKKKLSTIVNQSSPTPASRNKRASVINVEKNQKRASIFSTTKKNKRSSRSIKRMSLIPSMKRESVTTKLMSTYAKLAEDDDWEYIEKETKRTSSNFATLIDEIFEYEKYEQIRKEKEELERKVREAKAREELERRRRKQEEKERARKLLEKEDLKRKQEELKKQIEIDISDLEQELSKHKEEKLDGNIRSISAPMENEEKNINHLEVDIDNILRRRNFSLQTRPVSRLDPGIMFSSPTEEVSPVEPKRTENERLTTEKKILETIRRSKFLGSSFNIDKELKLSKMEYPSIIAPQRLSEERVVSDSNDGYESLILPKDGNGVSQLKDSTATTAPVSDGRLRKISEIRVPQFTRKSRHFSESNKRLSVLSMYSTKESFTNLVDILKNGNLDVNNQQSQRIPTPRSADDSEFLFETVNEEAEYTGNSSNDERLYDVGDSTIKDKSALKLNFADRFNGSNEAKQTDNLHLPILPPLNGDNELRKQNSQEGDQAHPKIKSMIPESGSSSHTEKEEENEEKEEKKPEQHKQEEDQEKREKVVDDMEPPLNKSVQKIREKNAGSQAKDHSKDHLKEHKQDKNTAIGNGSFFRKFSKSSDKTMELYAKISAKQLFNGLEKLLRGWTQYGLKNIKSHPNNLTLTGKLSSDNIFSLRSTLFEVNIYPRGKMSVVQFKKVSGSFKAVKKLVNEVENVLNKEGVLQK
# partner: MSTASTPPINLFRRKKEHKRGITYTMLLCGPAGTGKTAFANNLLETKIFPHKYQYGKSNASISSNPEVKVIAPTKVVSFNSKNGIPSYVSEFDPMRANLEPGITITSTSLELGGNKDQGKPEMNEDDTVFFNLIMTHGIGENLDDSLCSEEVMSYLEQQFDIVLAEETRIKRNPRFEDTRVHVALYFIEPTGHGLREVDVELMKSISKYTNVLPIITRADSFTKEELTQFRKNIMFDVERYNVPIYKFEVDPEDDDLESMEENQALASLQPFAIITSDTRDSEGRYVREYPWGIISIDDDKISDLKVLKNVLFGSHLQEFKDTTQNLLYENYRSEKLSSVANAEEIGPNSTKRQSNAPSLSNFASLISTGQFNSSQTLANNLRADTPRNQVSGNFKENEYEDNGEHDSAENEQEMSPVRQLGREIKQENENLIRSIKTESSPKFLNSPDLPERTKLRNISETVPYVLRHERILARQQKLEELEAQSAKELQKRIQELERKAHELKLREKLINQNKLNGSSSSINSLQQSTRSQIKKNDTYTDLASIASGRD
# Variants of: B1
# Details: with shs1_yeast SHS1, Q07657
row,effect of a mutation on the interaction,Variant
1,disrupting interaction,K48A
